Patent publication US20240317847A1 (Bayer, published 2024)

Assays:
[1] = biological target: T1, human IL-11 (human, UniProt P20809 22-199); test: SPR, antibody captured, IL-11 as analyte
T1 construct: bought from Invigate; also called hIL-11; hIL11
T1 sequence: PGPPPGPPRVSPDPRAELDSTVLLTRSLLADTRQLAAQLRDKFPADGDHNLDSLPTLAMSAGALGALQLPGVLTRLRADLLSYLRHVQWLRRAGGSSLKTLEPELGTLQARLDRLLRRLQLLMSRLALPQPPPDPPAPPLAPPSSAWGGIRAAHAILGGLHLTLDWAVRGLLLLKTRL
Description: (§1) Antibodies were captured via anti-mouse Fc IgGs (“Mouse antibody capture kit, Order No. BR100383, Cytiva) covalently amine coupled to a Series S CM5 sensor chip (Cytiva). The amine coupling was carried out according to the manufacturer's instructions using 1-ethyl-3-(3-dimethylaminopropyl) carbodiimide hydrochloride (EDC), N-hydroxysuccinimide (NHS) and ethanolamine HCl, pH 8.5 (“Amine Coupling Kit” BR-1000-50, Cytiva.). Human IL-11 (Invigate, e.g., lot #C121021-19), and murine IL-11 (Invigate, e.g., lot #C210819-09) were used as analytes. […] Based on that experiment an IL-11 concentration range was chosen to optimally determine kinetics and affinity of anti-IL-11 antibodies in multicycle kinetics mode. The sensor surface was regenerated with glycine pH 1.7 after each antigen injection. Obtained sensorgrams were double referenced (subtraction of reference flow cell signal and buffer injection) and were fitted to a 1:1 Langmuir binding model to derive kinetic data using the Biacore T200 Evaluation software or the Biacore Insight software.
(§2) 42 hits from the IL-11 and […] screening analysis were selected, expressed by transient transfection of mammalian cells and purified as described in Example 15. Antibodies were then tested for human IL-11 and murine IL-11 binding by SPR as described in Example 16.

[2] = biological target: T2, murine IL-11 (mouse, UniProt P47873 22-199); test: SPR, antibody captured, IL-11 as analyte
T2 construct: bought from Invigate; also called mIL-11; mIL11
T2 sequence: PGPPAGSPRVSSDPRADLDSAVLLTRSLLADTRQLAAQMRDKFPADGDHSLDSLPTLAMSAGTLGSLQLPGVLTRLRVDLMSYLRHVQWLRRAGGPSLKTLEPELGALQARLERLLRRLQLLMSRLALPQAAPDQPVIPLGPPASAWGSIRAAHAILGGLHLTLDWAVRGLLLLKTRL
Description: as §1, §2

Binder	Kd [1]	Kd [2]
TPP-26303 (antibody, V domains shown, constant regions not restated) VH: EVQLLESGGGLVQPGGSLRLSCAASGFTFSSYGMHWVRQAPGKGLEWVSVISYDGSYKYYADSVKGRFTISRDNSKNTLYLQMNSLRAEDTAVYYCAAGVPDYWGQGTLVTVSS VL: QSVLTQPPSASGTPGQRVTISCTGSSSNIGAGYDVHWYQQLPGTAPKLLIYSNNERPEGVPDRFSGSKSGTSASLAISGLRSEDEADYYCAAWDDSLNGPVFGGGTKLTVL	13 nM	0.65 nM
TPP-26318 (antibody, V domains shown, constant regions not restated) VH: EVQLLESGGGLVQPGGSLRLSCAASGFTFSSYGMHWVRQAPGKGLEWVSVISYDGSYKYYADSVKGRFTISRDNSKNTLYLQMNSLRAEDTAVYYCAAGVPDYWGQGTLVTVSS VL: QSVLTQPPSASGTPGQRVTISCTGSSSNIGAGYFVHWYQQLPGTAPKLLIYSNNERPSGVPDRFSGSKSGTSASLAISGLRSEDEADYYCAAWDDSLNGPVFGGGTKLTVL	14 nM	8.1 nM
TPP-26313 (antibody, V domains shown, constant regions not restated) VH: EVQLLESGGGLVQPGGSLRLSCAASGFTFSSYGMHWVRQAPGKGLEWVSVISYDGSYKYYADSVKGRFTISRDNSKNTLYLQMNSLRAEDTAVYYCAAGVPDYWGQGTLVTVSS VL: QSVLTQPPSASGTPGQRVTISCTGSSSNIGAYYDVHWYQQLPGTAPKLLIYSNNERPSGVPDRFSGSKSGTSASLAISGLRSEDEADYYCAAWDDSLNGPVFGGGTKLTVL	9.1 nM	0.46 nM
TPP-26314 (antibody, V domains shown, constant regions not restated) VH: EVQLLESGGGLVQPGGSLRLSCAASGFTFSSYGMHWVRQAPGKGLEWVSVISYDGSYKYYADSVKGRFTISRDNSKNTLYLQMNSLRAEDTAVYYCAAGVPDYWGQGTLVTVSS VL: QSVLTQPPSASGTPGQRVTISCTGSSSNIGAGYDVHWYQQLPGTAPKLLIYSNNERPSGVPDRFSGSKSGTSASLAISGLRSEDEADYYCAAWDWSLNGPVFGGGTKLTVL	8.3 nM	0.56 nM
TPP-26307 (antibody, V domains shown, constant regions not restated) VH: EVQLLESGGGLVQPGGSLRLSCAASGFTFSSYGMHWVRQAPGKGLEWVSVISYDGSYKYYADSVKGRFTISRDNSKNTLYLQMNSLRAEDTAVYYCAAGVPDYWGQGTLVTVSS VL: QSVLTQPPSASGTPGQRVTISCTGSSSNIGAGYDVHWYQQLPGTAPKLLIYSNNERPSGVPDRFSGSKSGTSASLAISGLRSEDEADYYCAAWDISLNGPVFGGGTKLTVL	16 nM	1.6 nM
TPP-26317 (antibody, V domains shown, constant regions not restated) VH: EVQLLESGGGLVQPGGSLRLSCAASGFTFSSYGMHWVRQAPGKGLEWVSVISYDGSYKYYADSVKGRFTISRDNSKNTLYLQMNSLRAEDTAVYYCAAGVPDYWGQGTLVTVSS VL: QSVLTQPPSASGTPGQRVTISCTGSSSNIGAEYDVHWYQQLPGTAPKLLIYSNNERPSGVPDRFSGSKSGTSASLAISGLRSEDEADYYCAAWDDSLNGPVFGGGTKLTVL	8.1 nM	0.9 nM
TPP-26308 (antibody, V domains shown, constant regions not restated) VH: EVQLLESGGGLVQPGGSLRLSCAASGFTFSSYGMHWVRQAPGKGLEWVSVISYDGSYKYYADSVKGRFTISRDNSKNTLYLQMNSLRAEDTAVYYCAAGVPDYWGQGTLVTVSS VL: QSVLTQPPSASGTPGQRVTISCTGSSSNIGAGYDVHWYQQLPGTAPKLLIYSNNERPSGVPDRFSGSKSGTSASLAISGLRSEDEADYYCAAWDVSLNGPVFGGGTKLTVL	17 nM	1.3 nM
TPP-26323 (antibody, V domains shown, constant regions not restated) VH: EVQLLESGGGLVQPGGSLRLSCAASGFTFSSYGMHWVRQAPGKGLEWVSVISYDGSYKYYADSVKGRFTISRDNSKNTLYLQMNSLRAEDTAVYYCAAGVPDYWGQGTLVTVSS VL: QSVLTQPPSASGTPGQRVTISCTGSSSNIGAGYDVHWYQQLPGTAPKLLIYSNNERPSGVPDRFSGSKSGTSASLAISGLRSEDEADYYCAAWDGSLNGPVFGGGTKLTVL	10 nM	0.58 nM
TPP-26315 (antibody, V domains shown, constant regions not restated) VH: EVQLLESGGGLVQPGGSLRLSCAASGFTFSSYGMHWVRQAPGKGLEWVSVISYDGSYKYYADSVKGRFTISRDNSKNTLYLQMNSLRAEDTAVYYCAAGVPDYWGQGTLVTVSS VL: QSVLTQPPSASGTPGQRVTISCTGSSSNIGAHYDVHWYQQLPGTAPKLLIYSNNERPSGVPDRFSGSKSGTSASLAISGLRSEDEADYYCAAWDDSLNGPVFGGGTKLTVL	14 nM	0.95 nM
TPP-26321 (antibody, V domains shown, constant regions not restated) VH: EVQLLESGGGLVQPGGSLRLSCAASGFTFSSYGMHWVRQAPGKGLEWVSVISYDGSYKYYADSVKGRFTISRDNSKNTLYLQMNSLRAEDTAVYYCAAGVPDYWGQGTLVTVSS VL: QSVLTQPPSASGTPGQRVTISCTGSSSNIGAGYDVHWYQQLPGTAPKLLIYSNNERPSGVPDRFSGSKSGTSASLAISGLRSEDEADYYCAAWDLSLNGPVFGGGTKLTVL	9.3 nM	0.94 nM
TPP-26306 (antibody, V domains shown, constant regions not restated) VH: EVQLLESGGGLVQPGGSLRLSCAASGFTFSSYGMHWVRQAPGKGLEWVSVISYDGSYKYYADSVKGRFTISRDNSKNTLYLQMNSLRAEDTAVYYCAAGVPDYWGQGTLVTVSS VL: QSVLTQPPSASGTPGQRVTISCTGSSSNIGAGYDVHWYQQLPGTAPKLLIYSNNERPSGVPDRFSGSKSGTSASLAISGLRSEDEADYYCAAWDQSLNGPVFGGGTKLTVL	12 nM	0.65 nM
TPP-26316 (antibody, V domains shown, constant regions not restated) VH: EVQLLESGGGLVQPGGSLRLSCAASGFTFSSYGMHWVRQAPGKGLEWVSVISYDGSYKYYADSVKGRFTISRDNSKNTLYLQMNSLRAEDTAVYYCAAGVPDYWGQGTLVTVSS VL: QSVLTQPPSASGTPGQRVTISCTGSSSNIGAGYDVHWYQQLPGTAPKLLIYSNNERPSGVPDRFSGSKSGTSASLAISGLRSEDEADYYCAAWDMSLNGPVFGGGTKLTVL	8.4 nM	0.72 nM
TPP-26312 (antibody, V domains shown, constant regions not restated) VH: EVQLLESGGGLVQPGGSLRLSCAASGFTFSSYGMHWVRQAPGKGLEWVSVISYDGSYKYYADSVKGRFTISRDNSKNTLYLQMNSLRAEDTAVYYCAAGVPDYWGQGTLVTVSS VL: QSVLTQPPSASGTPGQRVTISCTGSSSNIGAGLDVHWYQQLPGTAPKLLIYSNNERPSGVPDRFSGSKSGTSASLAISGLRSEDEADYYCAAWDDSLNGPVFGGGTKLTVL	10 nM	0.8 nM
TPP-26304 (antibody, V domains shown, constant regions not restated) VH: EVQLLESGGGLVQPGGSLRLSCAASGFTFSSYGMHWVRQAPGKGLEWVSVISYDGSYKYYADSVKGRFTISRDNSKNTLYLQMNSLRAEDTAVYYCAAGVPDYWGQGTLVTVSS VL: QSVLTQPPSASGTPGQRVTISCTGSSSNIWAGYDVHWYQQLPGTAPKLLIYSNNERPSGVPDRFSGSKSGTSASLAISGLRSEDEADYYCAAWDDSLNGPVFGGGTKLTVL	12 nM	0.64 nM
TPP-26319 (antibody, V domains shown, constant regions not restated) VH: EVQLLESGGGLVQPGGSLRLSCAASGFTFSSYGMHWVRQAPGKGLEWVSVISYDGSYKYYADSVKGRFTISRDNSKNTLYLQMNSLRAEDTAVYYCAAGVPDYWGQGTLVTVSS VL: QSVLTQPPSASGTPGQRVTISCTGSSSNIGAGYDVHWYQQLPGTAPKLLIYSNNEKPSGVPDRFSGSKSGTSASLAISGLRSEDEADYYCAAWDDSLNGPVFGGGTKLTVL	12 nM	1.4 nM
TPP-26309 (antibody, V domains shown, constant regions not restated) VH: EVQLLESGGGLVQPGGSLRLSCAASGFTFSSYGMHWVRQAPGKGLEWVSVISYDGSYKYYADSVKGRFTISRDNSKNTLYLQMNSLRAEDTAVYYCAAGVPDYWGQGTLVTVSS VL: QSVLTQPPSASGTPGQRVTISCTGSSSNIGAGYDVHWYQQLPGTAPKLLIYSNNERPSGVPDRFSGSKSGTSASLAISGLRSEDEADYYCAAWDFSLNGPVFGGGTKLTVL	8.2 nM	0.8 nM
TPP-26310 (antibody, V domains shown, constant regions not restated) VH: EVQLLESGGGLVQPGGSLRLSCAASGFTFSSYGMHWVRQAPGKGLEWVSVISYDGSYKYYADSVKGRFTISRDNSKNTLYLQMNSLRAEDTAVYYCAAGVPDYWGQGTLVTVSS VL: QSVLTQPPSASGTPGQRVTISCTGSSSNIGAGYDVHWYQQLPGTAPKLLIYSNNERPWGVPDRFSGSKSGTSASLAISGLRSEDEADYYCAAWDDSLNGPVFGGGTKLTVL	13 nM	0.66 nM
TPP-26320 (antibody, V domains shown, constant regions not restated) VH: EVQLLESGGGLVQPGGSLRLSCAASGFTFSSYGMHWVRQAPGKGLEWVSVISYDGSYKYYADSVKGRFTISRDNSKNTLYLQMNSLRAEDTAVYYCAAGVPDYWGQGTLVTVSS VL: QSVLTQPPSASGTPGQRVTISCTGSSSNIGAGYDVHWYQQLPGTAPKLLIYSNEERPSGVPDRFSGSKSGTSASLAISGLRSEDEADYYCAAWDDSLNGPVFGGGTKLTVL	13 nM	0.83 nM
